From US10441541B2, “Methods and compositions for treating osteoarthritis and promoting cartilage formation” (New York University, priority 2015, dated 2019)

Key:
[1] = tested on: neonatal murine chondrocytes; assay: Aggrecan expression in cultured chondrocytes, Alcian Blue staining; assay type: cell-based; conditions: 1 μM
Source text: (Gosset et al., Nat Protoc 2008; 3:1253-1260). […] Following digital quantitation of alcian-blue stained aggrecan in the tissue wells, aggrecan levels are expressed as % control (±SEM) as provided in FIG. 4B.

A3 adenosine receptor = target: T1, A3 adenosine receptor (Homo sapiens, UniProt P0DMS8); conditions: cited from earlier work
T1 sequence (P0DMS8 1-318): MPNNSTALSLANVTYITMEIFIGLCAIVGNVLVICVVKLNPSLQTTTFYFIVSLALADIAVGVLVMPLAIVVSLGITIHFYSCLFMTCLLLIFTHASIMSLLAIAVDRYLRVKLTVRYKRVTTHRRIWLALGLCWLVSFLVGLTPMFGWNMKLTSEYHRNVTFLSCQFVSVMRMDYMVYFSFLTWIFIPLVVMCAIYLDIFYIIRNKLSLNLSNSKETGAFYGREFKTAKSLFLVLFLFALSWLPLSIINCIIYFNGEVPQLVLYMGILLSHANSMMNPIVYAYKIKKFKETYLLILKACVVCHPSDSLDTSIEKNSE

[2] = tested on: rat tibial plateau explants; assay: Adenosine release from tibial plateau explants, with and without mechanical loading; assay type: cell-based
Method: 14 to 19 week old male Sprague-Dawly rats were sacrificed and their tibias were harvested. The soft tissue was removed from the bone and the proximal tibia was cut in the growth plate region by using a Low Speed Diamond Wheel Saw-Model 650 (South Bay Technologies, CA, USA). Tibia surface was cut separating the medial and the lateral condyle. Samples were incubated in media containing DMEM-F12, FBS 10%, 100 ug/ml of ascorbic acid, 2 mM of […], 1% of Penicillin, Streptomycin and amphotericin. The explants were incubated with or without IL-1β (5 ng/ml) for 24 hours. After incubation the samples were placed in a glass plate in new media without FBS. The loading was programmed using the block waveform feature in Wintest 7 software of BOSE Electroforce 3200 system (Bose Inc., MN, USA). The specimens were preloaded with uniaxial compressive load that was applied at 0.005 mm/s loading rate under displacement control up to 0.01 mm. Samples undergo cyclic load at 2 Hz for 1800 cycles at 1.5N compressive load under load control. Dwell for 2700s immediately after the end of 1800th cycle. Media samples were collected after 1, 10 and 15 minutes during loading and 15 and 30 minutes after loading. Samples collected for ATP assay were stored immediately on ice.

murine chondrocytes = assay: Expression of adenosine-related enzymes and transporters in chondrocytes (RT-PCR, western blot, immunofluorescence); assay type: cell-based, mouse
Method: (§1) Articular chondrocytes were obtained from C57BL/6 WT or A2AKO newborn mice following a protocol previously described (Thirion et al., Methods in Molecular Medicine 2004; 100:1-14), Primary chondrocytes (80% confluence) were starved for 5h. Cells were treated for 24h with mouse recombinant IL-1β (5 ng/ml) in DMEM containing 10% FBS and 1% Penicillin-Steptomycin. For intracellular ATP assay, cells were collected and lysed with RIPA buffer containing proteases and phosphatase inhibitors. […] ATP was assayed using a bioluminescent ATP determination kit following the manufacturer's instructions. Adenosine was extracted and tested by HPLC as previously described. ATP and adenosine data were normalized following protein quantification.
After cell treatments, the total protein extracts were collected and stored at −80° C. Total protein fractions were quantified using the BCA kit (Thermo Scientific). Western blotting was performed by electrophoresing […] protein through a 10% polyacrylamide gel followed by transfer of proteins to nitrocellulose membranes. […] Membranes were scanned with Li-cor Odyssey equipment and the intensities of the protein bands were quantified by densitometric analysis using Image Studio 2.0 38 software. […]

[3] = tested on: primary murine chondrocytes; assay: ATP and adenosine content and release of primary chondrocytes after IL-1β; assay type: cell-based, mouse; conditions: 5 ng/ml for 24 hours
Method: as §1

CCNC(=O)[C@H]1O[C@@H](n2cnc3c(N)nc(NCCc4ccc(CCC(=O)O)cc4)nc32)[C@H](O)[C@@H]1O [CGS21680]
aggrecan expression ([1]; Alcian Blue staining of cultured chondrocyte matrix, preliminary experiments): nearly two-fold increase | amount of alcian blue-stained material in wells ([1]; in the absence or presence of IL-1): greatest amount of alcian blue-stained material

Nc1ncnc2c1ncn2[C@@H]1O[C@H](CO)[C@@H](O)[C@H]1O [adenosine]
affinity for adenosine (A3 adenosine receptor): low-micromolar range

B1: IL-1β: Mouse and rat recombinant Il-1β from R&D Systems, inflammatory stimulus (protein, UniProt P10749 118-269, looked up)
Interleukin-1 beta: VPIRQLHYRLRDEQQKSLVLSDPYELKALHLNGQNINQQVIFSMSFVQGEPSNDKIPVALGLKGKNLYLSCVMKDGTPTLQLESVDPKQYPKKKMEKRFVFNKIEVKSKVEFESAEFPNWYISTSQAEHKPVFLGNNSGQDIIDFTMESVSS
modifications: rat protein also used
notes: Mouse and rat recombinant Il-1β from R&D Systems, inflammatory stimulus
adenosine release from cartilage explants ([2]; explants without loading): reduced adenosine release | adenosine release after weight loading ([2]; pre-treatment 5 ng/ml for 24 hours, loading within physiologic range, n=5, without pre-treatment 1657±177 nM): 960 ± 57 nM | message of ENTPD1, NT5E, PANX1, SLC29A1, SLC29A2 and ANKH (murine chondrocytes; 5 ng/ml for 24 hours, RT-PCR, n=4): significantly decrease message | NT5E protein expression and localization on chondrocyte surface (murine chondrocytes; 5 ng/ml, western blot and immunofluorescence): decreased NTSE protein expression and its localization on chondrocyte surface | ATP released into the supernates [3]: 66±3 % of control | adenosine concentration in the supernates [3]: 65 % of control | intracellular ATP [3]: 61±9 % of control | adenosine concentration in the supernates ([3]; n=9, control 143±14 nM): 94 ± 14 nM
